{
  "source": "patent US20120122128A1",
  "key": {"[1]": {"target": "FGFR3 of SEQ ID NO: 25 (Homo sapiens (Human)) (UniProt P22607)", "sequence (P22607 other isoform, or with tags, fused parts or gaps limits assumed)": "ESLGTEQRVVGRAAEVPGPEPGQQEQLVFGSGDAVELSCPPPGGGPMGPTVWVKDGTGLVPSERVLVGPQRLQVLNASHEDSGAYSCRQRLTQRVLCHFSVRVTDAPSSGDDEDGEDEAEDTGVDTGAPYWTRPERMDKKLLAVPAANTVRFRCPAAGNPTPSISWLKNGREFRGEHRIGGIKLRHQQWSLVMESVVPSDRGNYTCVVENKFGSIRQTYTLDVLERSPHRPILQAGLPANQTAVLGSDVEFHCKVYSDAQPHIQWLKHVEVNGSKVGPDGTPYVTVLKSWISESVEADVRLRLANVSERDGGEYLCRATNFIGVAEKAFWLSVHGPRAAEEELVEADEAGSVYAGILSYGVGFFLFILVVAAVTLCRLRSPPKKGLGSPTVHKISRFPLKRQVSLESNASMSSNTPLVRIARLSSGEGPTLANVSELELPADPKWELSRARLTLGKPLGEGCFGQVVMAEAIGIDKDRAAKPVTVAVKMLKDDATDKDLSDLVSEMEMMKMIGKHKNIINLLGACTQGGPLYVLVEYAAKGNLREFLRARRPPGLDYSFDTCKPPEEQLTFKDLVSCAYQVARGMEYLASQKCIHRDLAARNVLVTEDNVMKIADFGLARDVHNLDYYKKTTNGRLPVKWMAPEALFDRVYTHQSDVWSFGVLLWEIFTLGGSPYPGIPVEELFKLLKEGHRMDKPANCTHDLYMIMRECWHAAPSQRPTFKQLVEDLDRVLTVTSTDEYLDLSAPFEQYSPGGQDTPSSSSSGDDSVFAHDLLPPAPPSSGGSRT", "experiment": "cell-based or functional assay"}, "[2]": {"target": "SNAP-25 peptide comprising amino acids 134-197 of SEQ ID NO: 5 (human)", "experiment": "SPR (BIAcore 3000), peptide amine-coupled to CM5 chip, antibody as analyte, 1:1 fit"}, "[3]": {"target": "SNAP-25 peptide comprising amino acids 134-206 of SEQ ID NO: 5 (human)", "experiment": "SPR (BIAcore 3000), peptide amine-coupled to CM5 chip, antibody as analyte, 1:1 fit"}},
  "data": [
    {"substance": "BoNT/A complex (from UniProt P0DPI0 2-1296) (enzyme)", "values": [
      {"measurement": "EC50 (nM) of SNAP-25 cleavage, Western blot, PC-12 cells transfected with FGFR3", "setting": "[1]", "result": 0.263, "unit": "nM"},
      {"measurement": "EC50 (nM) of SNAP-25 cleavage, Western blot, SiMa cells transfected with FGFR3", "setting": "[1]", "result": 0.0377, "unit": "nM"}
    ]},
    {"substance": "MC-6053 α-SNAP-25 mouse monoclonal antibody (Research & Diagnostic Antibodies)", "values": [
      {"measurement": "Kd", "setting": "[2]", "result": 0.508, "unit": "nM"},
      {"measurement": "koff", "setting": "[2]", "result": 0.00118, "unit": "s⁻¹"},
      {"measurement": "kon", "setting": "[2]", "result": "2.32e+06", "unit": "M⁻¹ s⁻¹"},
      {"measurement": "Kd", "setting": "[3]", "result": 240, "unit": "nM"},
      {"measurement": "koff", "setting": "[3]", "result": "2.56e-05", "unit": "s⁻¹"}
    ]},
    {"substance": "MC-6050 α-SNAP-25 mouse monoclonal antibody (Research & Diagnostic Antibodies)", "values": [
      {"measurement": "Kd", "setting": "[2]", "result": 0.497, "unit": "nM"},
      {"measurement": "koff", "setting": "[2]", "result": 0.000882, "unit": "s⁻¹"},
      {"measurement": "kon", "setting": "[2]", "result": "1.78e+06", "unit": "M⁻¹ s⁻¹"},
      {"measurement": "Kd", "setting": "[3]", "result": 19800, "unit": "nM"},
      {"measurement": "koff", "setting": "[3]", "result": 0.00607, "unit": "s⁻¹"},
      {"measurement": "kon", "setting": "[3]", "result": 306, "unit": "M⁻¹ s⁻¹"}
    ]}
  ]
}
